B1: Peroxisome proliferator-activated receptor alpha (Homo sapiens), Q07869 (parent)
chain: MVDTESPLCPLSPLEAGDLESPLSEEFLQEMGNIQEISQSIGEDSSGSFGFTEYQYLGSCPGSDGSVITDTLSPASSPSSVTYPVVPGSVDESPSGALNIECRICGDKASGYHYGVHACEGCKGFFRRTIRLKLVYDKCDRSCKIQKKNRNKCQYCRFHKCLSVGMSHNAIRFGRMPRSEKAKLKAEILTCEHDIEDSETADLKSLAKRIYEAYLKNFNMNKVKARVILSGKASNNPPFVIHDMETLCMAEKTLVAKLVANGIQNKEAEVRIFHCCQCTSVETVTELTEFAKAIPGFANLDLNDQVTLLKYGVYEAIFAMLSSVMNKDGMLVAYGNGFITREFLKSLRKPFCDIMEPKFDFAMKFNALELDDSDISLFVAAIICCGDRPGLLNVGHIEKMQEGIVHVLRLHLQSNHPDDIFLFPKLLQKMADLRQLVTEHAQLVQIIKKTESDAALHPLLQEIYRDMY

Variants of: B1
Details: with ncor1_human NCOR1, O75376
Chain of ncor1_human NCOR1, O75376 (O75376 whole entry): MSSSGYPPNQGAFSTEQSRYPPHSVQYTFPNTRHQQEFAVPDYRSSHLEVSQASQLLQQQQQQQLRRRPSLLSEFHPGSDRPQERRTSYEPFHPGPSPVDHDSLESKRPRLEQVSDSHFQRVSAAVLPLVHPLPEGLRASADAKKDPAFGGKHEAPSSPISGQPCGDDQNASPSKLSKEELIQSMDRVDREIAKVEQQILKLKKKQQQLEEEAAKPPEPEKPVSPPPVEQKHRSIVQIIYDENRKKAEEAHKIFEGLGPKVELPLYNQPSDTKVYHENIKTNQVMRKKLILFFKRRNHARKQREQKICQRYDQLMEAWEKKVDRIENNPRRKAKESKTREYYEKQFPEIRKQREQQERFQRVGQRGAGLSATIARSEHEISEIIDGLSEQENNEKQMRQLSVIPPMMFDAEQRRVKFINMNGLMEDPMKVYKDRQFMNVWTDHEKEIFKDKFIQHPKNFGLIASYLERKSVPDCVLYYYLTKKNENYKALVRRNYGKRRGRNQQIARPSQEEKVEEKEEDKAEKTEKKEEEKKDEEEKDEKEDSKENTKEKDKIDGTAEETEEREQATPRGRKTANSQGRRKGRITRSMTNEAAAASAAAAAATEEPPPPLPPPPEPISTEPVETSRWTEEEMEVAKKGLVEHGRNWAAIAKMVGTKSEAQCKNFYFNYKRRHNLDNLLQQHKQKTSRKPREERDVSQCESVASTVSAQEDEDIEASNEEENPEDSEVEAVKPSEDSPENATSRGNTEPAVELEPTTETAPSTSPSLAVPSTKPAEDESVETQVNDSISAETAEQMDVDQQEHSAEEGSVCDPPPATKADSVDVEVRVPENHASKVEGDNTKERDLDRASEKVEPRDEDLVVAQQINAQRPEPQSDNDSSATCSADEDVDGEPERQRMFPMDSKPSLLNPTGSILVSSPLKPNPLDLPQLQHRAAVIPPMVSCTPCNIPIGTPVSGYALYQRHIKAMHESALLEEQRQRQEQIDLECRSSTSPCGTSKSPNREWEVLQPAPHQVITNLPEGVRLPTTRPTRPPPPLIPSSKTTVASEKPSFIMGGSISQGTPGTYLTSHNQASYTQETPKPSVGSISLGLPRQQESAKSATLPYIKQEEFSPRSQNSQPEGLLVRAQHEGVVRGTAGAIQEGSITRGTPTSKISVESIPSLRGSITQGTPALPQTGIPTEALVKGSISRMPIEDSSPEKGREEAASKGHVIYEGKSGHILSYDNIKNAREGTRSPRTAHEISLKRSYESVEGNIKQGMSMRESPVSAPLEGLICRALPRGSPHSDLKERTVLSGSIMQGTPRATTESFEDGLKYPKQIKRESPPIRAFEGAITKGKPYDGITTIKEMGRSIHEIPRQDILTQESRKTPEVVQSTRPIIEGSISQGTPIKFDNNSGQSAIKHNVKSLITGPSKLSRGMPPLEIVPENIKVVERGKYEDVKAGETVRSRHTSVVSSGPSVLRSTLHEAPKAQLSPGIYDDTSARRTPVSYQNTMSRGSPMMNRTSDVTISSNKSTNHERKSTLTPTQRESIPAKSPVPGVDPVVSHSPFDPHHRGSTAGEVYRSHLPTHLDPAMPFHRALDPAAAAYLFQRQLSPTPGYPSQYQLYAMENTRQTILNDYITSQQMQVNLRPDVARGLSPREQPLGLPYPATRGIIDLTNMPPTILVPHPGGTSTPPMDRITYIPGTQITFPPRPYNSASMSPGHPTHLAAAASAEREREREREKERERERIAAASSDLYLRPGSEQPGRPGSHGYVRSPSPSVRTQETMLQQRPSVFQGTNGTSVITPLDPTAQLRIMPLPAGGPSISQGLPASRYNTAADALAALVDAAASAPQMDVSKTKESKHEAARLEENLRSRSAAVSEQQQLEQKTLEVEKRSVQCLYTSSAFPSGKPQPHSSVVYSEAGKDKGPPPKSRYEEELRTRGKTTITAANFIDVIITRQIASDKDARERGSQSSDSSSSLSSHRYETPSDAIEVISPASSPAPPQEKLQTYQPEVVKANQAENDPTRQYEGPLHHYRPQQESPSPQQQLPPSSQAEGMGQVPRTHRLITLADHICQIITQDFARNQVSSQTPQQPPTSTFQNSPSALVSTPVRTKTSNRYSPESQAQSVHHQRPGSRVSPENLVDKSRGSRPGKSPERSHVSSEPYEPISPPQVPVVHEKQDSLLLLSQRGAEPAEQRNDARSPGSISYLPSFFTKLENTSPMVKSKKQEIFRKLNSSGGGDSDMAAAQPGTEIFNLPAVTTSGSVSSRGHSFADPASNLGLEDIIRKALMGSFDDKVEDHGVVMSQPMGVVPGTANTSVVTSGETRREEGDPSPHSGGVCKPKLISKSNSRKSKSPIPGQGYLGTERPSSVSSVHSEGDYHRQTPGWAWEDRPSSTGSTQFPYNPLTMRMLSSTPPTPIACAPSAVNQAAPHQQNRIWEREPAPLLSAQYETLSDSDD

Variant	effect of a mutation on the interaction
K185R	decreasing interaction
